Square brackets hold non-standard residues; d marks the D form. Primed or numbered codes have the meaning given here. Side chains are listed from the residue outwards. Ends that are not written are not given here. Peptide text beside a SMILES is read from it. maleimide″ = maleimide group of the 22 kD methoxy-PEG-maleimide reagent, which reacts with the Cys sulfhydryl to form a stable thioether linkage; maleimide = methoxy-PEG-maleimide (thioether to cysteine thiol)
T1: VPAC2 (Homo sapiens, UniProt P41587)
T1 construct: expressed in transfected cells; membranes
T1 sequence (P41587 24-438): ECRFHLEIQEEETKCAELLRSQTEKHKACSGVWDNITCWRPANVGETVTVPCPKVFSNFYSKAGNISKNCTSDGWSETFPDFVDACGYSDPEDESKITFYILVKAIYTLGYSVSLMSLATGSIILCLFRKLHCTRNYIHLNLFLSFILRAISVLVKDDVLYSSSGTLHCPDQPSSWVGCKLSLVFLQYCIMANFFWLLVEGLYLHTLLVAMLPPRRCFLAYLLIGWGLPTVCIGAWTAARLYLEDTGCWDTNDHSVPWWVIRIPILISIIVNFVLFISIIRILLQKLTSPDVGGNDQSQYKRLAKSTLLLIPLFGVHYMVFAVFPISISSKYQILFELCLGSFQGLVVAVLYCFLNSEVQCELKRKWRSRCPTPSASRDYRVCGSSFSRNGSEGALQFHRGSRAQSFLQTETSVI

T2: human VPAC1 (human, UniProt P32241 31-457)
T2 construct: whole, on cells; The cAMP assay used whole cells; also called VPAC1 receptor
T2 sequence (looked up): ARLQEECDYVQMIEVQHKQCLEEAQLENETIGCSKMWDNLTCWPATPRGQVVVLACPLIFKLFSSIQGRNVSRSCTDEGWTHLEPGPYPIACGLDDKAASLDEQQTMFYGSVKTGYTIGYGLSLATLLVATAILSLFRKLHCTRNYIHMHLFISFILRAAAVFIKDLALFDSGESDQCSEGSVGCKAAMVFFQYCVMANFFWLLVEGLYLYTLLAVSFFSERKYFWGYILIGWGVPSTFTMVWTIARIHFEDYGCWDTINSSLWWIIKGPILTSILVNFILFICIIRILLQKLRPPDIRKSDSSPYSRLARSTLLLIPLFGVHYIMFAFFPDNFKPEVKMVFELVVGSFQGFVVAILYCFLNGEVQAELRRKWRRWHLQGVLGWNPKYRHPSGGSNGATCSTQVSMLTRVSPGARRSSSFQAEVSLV

B1: R2P16 (peptide)
peptide: HFDAVFTNSYRKVLKRLSARKLLQSIL
HELM: PEPTIDE1{[ac].H.[dF].D.A.V.F.T.N.S.Y.R.K.V.L.K.R.L.S.A.R.K.L.L.Q.S.I.L.[am]}$$$$V2.0
SMILES: CC[C@H](C)[C@H](NC(=O)[C@H](CO)NC(=O)[C@H](CCC(N)=O)NC(=O)[C@H](CC(C)C)NC(=O)[C@H](CC(C)C)NC(=O)[C@H](CCCCN)NC(=O)[C@H](CCCNC(=N)N)NC(=O)[C@H](C)NC(=O)[C@H](CO)NC(=O)[C@H](CC(C)C)NC(=O)[C@H](CCCNC(=N)N)NC(=O)[C@H](CCCCN)NC(=O)[C@H](CC(C)C)NC(=O)[C@@H](NC(=O)[C@H](CCCCN)NC(=O)[C@H](CCCNC(=N)N)NC(=O)[C@H](Cc1ccc(O)cc1)NC(=O)[C@H](CO)NC(=O)[C@H](CC(N)=O)NC(=O)[C@@H](NC(=O)[C@H](Cc1ccccc1)NC(=O)[C@@H](NC(=O)[C@H](C)NC(=O)[C@H](CC(=O)O)NC(=O)[C@@H](Cc1ccccc1)NC(=O)[C@H](Cc1c[nH]cn1)NC(C)=O)C(C)C)[C@@H](C)O)C(C)C)C(=O)N[C@@H](CC(C)C)C(N)=O
notes: Synthetic VIP/GHRH hybrid peptide, not PEGylated; also called Peptide R2P16
B2: R2P3-PEG22kD (peptide)
peptide: Ac-H[dF]DAVFTNSYRKVLKRLSARKLLQDILC([maleimide-methoxy‑PEG 22 kD])-NH2
notes: also called PEGylated R2P3
B3: R2P11-PEG22kD (peptide)
peptide: Ac-H[dF]DAVFTNSYRKVLKRLSVRKLLQDILC([maleimide-methoxy‑PEG 22 kD])-NH2
notes: also called PEGylated R2P11

Key:
[1] = test system: NCI-H727 human non-small cell lung carcinoma cell line; experiment: NCI-H727 cancer cell proliferation assay (Alamar Blue); type: cell-based
Description: NCI-H727 is an adherent human non-small cell lung carcinoma cell line. The cells are grown in RPMI-1640 plus 2 mM L-Glutamine and 10% FBS and cells subcultured in the following manner: Medium was removed and cells were rinsed once in PBS solution. To harvest the cells 10 mls PBS containing 2 ml of trypsin-EDTA solution was added to a 75 ml flask. The flask was incubated at 37° C. until the cells detached. Fresh culture medium was added, aspirated and dispensed into new culture flasks. A split ratio of 1:3 to 1:4 was carried out 2 times per week. The 96-well assay was performed as follows: Day 1) Cells were seeded at 7000 cells/well in 0.2 ml complete medium/well and incubated overnight at 37° C. Day 2) Complete medium was aspirated from wells and 200 ul/well PBS was added and aspirated. Cells were then treated with peptides using the assay medium RPMI-1640 plus 2 mM L-Glutamine and 0.2% FBS at a final volume of 200 ul/well and incubated for 2 days. Day 4) Alamar Blue (10% of total volume) was added to wells and absorbance (530/590 nm) read at 0, 4, 6, 8, 10 and 24 hours.

VPAC2 = biological target: T1, VPAC2; experiment: Receptor competition assay, 125I-PACAP27 binding to CHO membranes (VPAC2); conditions: membranes of VPAC2-transfected CHO cells, 0.1 nM 125I-PACAP27
Text: In order to test for selective binding of the VPAC1 selective antagonist to the VPAC1, both the VPAC1 and VPAC2 receptors were expressed in CHO cells using the following procedure. The human VPAC1 and the VPAC2 were cloned via RT PCR from human heart mRNA and human testis mRNA, respectively, using TaqPlus Precision PCR System (Stratagene). The PCR products were subcloned into pCDNA3.1 (Invitrogen) for in vitro translation and mammalian expression. The cell line chosen for expression was the CHOcreluc line already expressing a cAMP response element-luciferase reporter along with Gα16. These cells were grown under hygromycin selection at 0.4 mg/ml. On the day of transfection, CHOcreluc cells at 70% confluency were washed with serum free media and transfected using Lipofectamine Plus Reagent (Gibco BRL). Stable pools were selected in the presence of 0.4 mg/ml hygromycin and 1.5 mg/ml G418. Once viably-frozen stocks had been made from these pools they were cloned by limiting dilution.
The capacity of the VPAC1 selective antagonist to selectively bind the VPAC1 as opposed to the VPAC2 receptor was measured using membranes prepared from CHO cells transfected with both receptors as described in Example 3. […] The filters were washed with cold 25 mM NaPO4 containing 1% BSA and counted in a gamma counter. […]

human VPAC1 [2] = biological target: T2, human VPAC1; experiment: ratio of the VPAC2 and VPAC1 IC50 values, 125I-PACAP27 competition on CHO membranes
Description: (§1) Cells were washed with phosphate buffered saline (PBS), scraped in homogenization buffer (10 mM Tris pH 7.4, 2 mM EDTA, 5 mM MgCl2, 1 mM PMSF), followed by centrifugation at 4000 g for 10 minutes at 4° C. The cell pellet was resuspended in homogenization buffer and homogenized using a Polytron. Membranes were collected by centrifugation at 30,000 g for 30 minutes at 4° C., resuspended in homogenization buffer, and stored at −80° C. until use. […] After incubating at 37° C. for 20 minutes, bound ligand was collected on GF/C filters pretreated with 0.1% polyethylenimine. The filters were washed with cold 25 mM NaPO4 containing 1% BSA and counted in a gamma counter. All reagents were purchased from Sigma unless otherwise indicated.

human VPAC1 [3] = biological target: T2, human VPAC1; experiment: competition with 125I-PACAP27 on membranes of CHO cells expressing human VPAC1
Description: as §1

human VPAC1 [4] = biological target: T2, human VPAC1; experiment: cell-based or functional assay

Row | Molecule | IC50 relative to reference compound R2P2 [1] | IC50 (VPAC2) | VPAC2/1 Selectivity (human VPAC1 [2]) | IC50 (human VPAC1 [3]) | CHO VPAC1 cAMP inhibition (IC50 against 1 nM VIP) (human VPAC1 [4])
1 | CC[C@H](C)[C@H](NC(=O)[C@H](CO)NC(=O)[C@H](CCC(N)=O)NC(=O)[C@H](CC(C)C)NC(=O)[C@H](CC(C)C)NC(=O)[C@H](CCCCN)NC(=O)[C@H](CCCNC(=N)N)NC(=O)[C@H](C)NC(=O)[C@H](CO)NC(=O)[C@H](CC(C)C)NC(=O)[C@H](CCCNC(=N)N)NC(=O)[C@H](CCCCN)NC(=O)[C@H](CC(C)C)NC(=O)[C@@H](NC(=O)[C@H](CCCCN)NC(=O)[C@H](CCCNC(=N)N)NC(=O)[C@H](Cc1ccc(O)cc1)NC(=O)[C@H](CO)NC(=O)[C@H](CC(N)=O)NC(=O)[C@@H](NC(=O)[C@H](Cc1ccccc1)NC(=O)[C@@H](NC(=O)[C@H](C)NC(=O)[C@H](CC(=O)O)NC(=O)[C@@H](Cc1ccccc1)NC(=O)[C@H](Cc1c[nH]cn1)NC(C)=O)C(C)C)[C@@H](C)O)C(C)C)C(=O)N[C@@H](CC(C)C)C(N)=O [Peptide R2P16] (HELM PEPTIDE1{[ac].H.[dF].D.A.V.F.T.N.S.Y.R.K.V.L.K.R.L.S.A.R.K.L.L.Q.S.I.L.[am]}$$$$V2.0) | three times lower |  |  |  | 
2 | R2P11-PEG22kD: R2P11 (SEQ ID NO 5) PEGylated at the C-terminal cysteine with 22 kD methoxy-PEG-maleimide (Ac-H[dF]DAVFTNSYRKVLKRLSVRKLLQDILC([maleimide-methoxy‑PEG 22 kD]); not fully specified (C-terminus); printed as HfDAVFTNSYRKVLKRLSVRKLLQDILC*; also: C-terminal * undefined) |  | > 10000 nM |  |  | 
3 | R2P3-PEG22kD: R2P3 (SEQ ID NO 4) PEGylated at the C-terminal cysteine with 22 kD methoxy-PEG-maleimide (Ac-H[dF]DAVFTNSYRKVLKRLSARKLLQDILC([maleimide″-methoxy‑PEG 22 kD]); not fully specified (C-terminus); printed as HfDAVFTNSYRKVLKRLSARKLLQDILC*; also: C-terminal * undefined) [Peptide R2P3-PEG22kD] |  | > 10000 nM |  |  | 
4 | B1 |  |  | > 700 fold | 17 nM | 50 nM
5 | B2 |  |  | > 480 fold | 21 nM | 181 nM
6 | B3 |  |  | > 200 fold | 49 nM | 101 nM
